Data set [1] deals with the molecule itself. The data set can be described thus: gel filtration (S75 26/60), self-association of monomers.

B1: DsbA-C4bp fusion protein (human C4bp core fused to the C-terminus of the E. coli DsbA protein) (protein)
chain: AQYEDGKQYTTLEKPVAGAPQVLEFFSFFCPHCYQFEEVLHISDNVKKKLPEGVKMTKYHVNFMGGDLGKDLTQAWAVAMALGVEDKVTVPLFEGVQKTQTIRSASDIRDVFINAGIKGEEYDAAWNSFVVKSLVAQQEKAAADVQLRGVPAMFVNGKYQLNPQGMDTSNMDVFVQQYADTVKYLSEKKETPEGCEQVLTGKRLMQCLPNPEDVKMALEVYKLSLEIEQLELQRDSARQSTLDKEL
For B1, the “increase of turbidity at 650 nm (insulin disulphide reduction assay)” value in the data set with insulin was “the DsbA present in the DsbA-C4bp fusion protein is still active, and the activity is directly comparable to the activity of soluble DsbA”.

B2: DsbA (soluble DsbA of E. coli) (protein)
chain: AQYEDGKQYTTLEKPVAGAPQVLEFFSFFCPHCYQFEEVLHISDNVKKKLPEGVKMTKYHVNFMGGDLGKDLTQAWAVAMALGVEDKVTVPLFEGVQKTQTIRSASDIRDVFINAGIKGEEYDAAWNSFVVKSLVAQQEKAAADVQLRGVPAMFVNGKYQLNPQGMDTSNMDVFVQQYADTVKYLSEKK
Take B2: the “increase of turbidity at 650 nm (insulin disulphide reduction assay)” value with insulin is on record as “the activity is directly comparable to the activity of soluble DsbA”.

B3: db-C4bp fusion protein (downstream box peptide fused N-terminal to the 57 amino acid core domain of the human C4bp alpha chain) (other)
chain: MASMNHKGSETPEGCEQVLTGKRLMQCLPNPEDVKMALEVYKLSLEIEQLELQRDSARQSTLDKEL
notes: Expressed in the cytosol of E. coli C41(DE3); Predicted monomer size 7491.5 Da; Recovered as an oligomer of about 60-67 kDa by gel filtration, with disulphide bonds between the monomers; also called native db-C4bp; product of plasmid pAVD 77
In the case of B3, the binding result in data set [1] is “binds”.

The values above are taken from patent publication US20070092933A1 (AVIDIS, published 2007).
